Results reported in article PMC2199005.

Assays:
[1] = target: recombinant streptococcal pyrogenic exotoxin C (SPE-C) (Streptococcus pyogenes); assay: nondenaturing SDS-PAGE
[2] = target: recombinant streptococcal pyrogenic exotoxin C (SPE-C) (Streptococcus pyogenes); assay: SEC

Substance: recombinant streptococcal pyrogenic exotoxin C (SPE-C) (natural protein)
- percent of SPE-C in dimer form [1]: > 60%
- percent dissociated to the monomer form [2]: 50%
- stoichiometry N [2]: 2
